This is an account of results in US20250145711A1 (Janssen / Centocor, published 2025).

B1: PSMB1051 (bispecific antibody, human IgG1, kappa, L234A L235A)
heavy: not shown
light: not shown
chain: QSVLTQPPSASGTPGQGVTISCSGSSSNIGSNTVNWFQQLPGTAPKLLIYSDNQRPSGVPDRFSGSKSGTSASLAISGLQSEDEADYYCAAWDDSLNGYVFGTGTKVTVLGGSEGKSSGSGSESKSTGGSEVQLVESGGGVVQPGRSLRLSCAASGFTFITYGMHWVRQAPGKGLEWVAVVSFDESNKYYADSVKGRFTISRDNSKNTLYLQMNSLRAEDTAVYYCARALRDGNNWDYFNGMDVWGQGTTVTVSSEPKSSDKTHTCPPCPAPEAAGGPSVFLFPPKPKDTLMISRTPEVTCVVVSVSHEDPEVKFNWYVDGVEVHNAKTKPREEQYNSTYRVVSVLTVLHQDWLNGKEYKCKVSNKALPAPIEKTISKAKGQPREPQVYVLPPSREEMTKNQVSLLCLVKGFYPSDIAVEWESNGQPENNYLTWPPVLDSDGSFFLYSKLTVDKSRWQQGNVFSCSVMHEALHNHYTQKSLSLSPG
notes: HC1 (ZWA): B23B62-Fab; LC2 is NA
B2: PSMB1068 (bispecific antibody, human IgG1, kappa, L234A L235A)
heavy: not shown
light: not shown
chain: QVQLQESGGDVVQPGRSLRLSCAASGFSFSGYGLHWVRQAPGRGLEWVTLISYDGSNKYYADSVKGRFTISRDNSKNTLYLQMNSLRAEDTAVYYCAKTTVSDPYYYGMDVWGQGTTVTVSSGGSEGKSSGSGSESKSTGGSSYELTQPPSVSVAPGQTARITCGGNNIGSKSVHWYQQKPGQAPVLVVYDDSDRPSGIPERFSGTNSGNTATLTISRAEAGDEADYYCQVWDSSSDHVVFGGGTKLTVLEPKSSDKTHTCPPCPAPEAAGGPSVFLFPPKPKDTLMISRTPEVTCVVVSVSHEDPEVKFNWYVDGVEVHNAKTKPREEQYNSTYRVVSVLTVLHQDWLNGKEYKCKVSNKALPAPIEKTISKAKGQPREPQVYVLPPSREEMTKNQVSLLCLVKGFYPSDIAVEWESNGQPENNYLTWPPVLDSDGSFFLYSKLTVDKSRWQQGNVFSCSVMHEALHNHYTQKSLSLSPG
notes: as for B1
B3: PSMB1069 (bispecific antibody, human IgG1, kappa, L234A L235A)
heavy: not shown
light: not shown
chain: QVQLVESGGGEVQPGRSLRLSCAASGFSFSGYGMHWVRQAPGKGLEWVAVMSYDGSNRFYVDSVRGRFSISRDNSKNTLYLQMNSLRPEDTAVYYCARDTVWGSHPDAFDIWGQGTVVTVSSGGSEGKSSGSGSESKSTGGSQSVLTQPPSVSVAPGQTARITCGGNNSGSKSVHWYQQKPGQAPVLVVYDDSDRPSGIPERFSGSNSGNTATLTISRVEAGDEADYYCQVWDSSSDHGVFGGGTKLTVLEPKSSDKTHTCPPCPAPEAAGGPSVFLFPPKPKDTLMISRTPEVTCVVVSVSHEDPEVKFNWYVDGVEVHNAKTKPREEQYNSTYRVVSVLTVLHQDWLNGKEYKCKVSNKALPAPIEKTISKAKGQPREPQVYVLPPSREEMTKNQVSLLCLVKGFYPSDIAVEWESNGQPENNYLTWPPVLDSDGSFFLYSKLTVDKSRWQQGNVFSCSVMHEALHNHYTQKSLSLSPG
notes: as for B1
B4: PSMB1045 (bispecific antibody, human IgG1, kappa, L234A L235A)
heavy: not shown
light: not shown
chain: SYELMQPPSVSVSPGQTARITCSGDALPKQYAYWYQQKPGQAPVLVIYKDSERPSGIPVRFSGSSSGTTVTLTITGVQAEDEADYYCQSADSSGTYVFGTGTKVTVLGGSEGKSSGSGSESKSTGGSQVQLVESGGGVVQPGRSLRLSCAASGFTFSSYNMNWVRQAPGKGLEWVAIIYYDGSNKYYADSVKGRFTISRDISKNTLYLQMNSLRAEDTAVYYCARERGRDYYGMDVWGQGTTVTVSSEPKSSDKTHTCPPCPAPEAAGGPSVFLFPPKPKDTLMISRTPEVTCVVVSVSHEDPEVKFNWYVDGVEVHNAKTKPREEQYNSTYRVVSVLTVLHQDWLNGKEYKCKVSNKALPAPIEKTISKAKGQPREPQVYVLPPSREEMTKNQVSLLCLVKGFYPSDIAVEWESNGQPENNYLTWPPVLDSDGSFFLYSKLTVDKSRWQQGNVFSCSVMHEALHNHYTQKSLSLSPG
notes: as for B1
B5: PSMB1075 (bispecific antibody, human IgG1, kappa, L234A L235A)
heavy: not shown
light: not shown
chain: EVQLVESGGGVVQPGRSLRLSCAASGFSFSGYGMHWVRQAPGKGLEWVAVISYDGSNKYYADSVKGRFTISRDNSKNTLYLQMNSLRVEDTAVYYCARDRIWGSRGYYYGMDVWGQGTTVTVSSGGSEGKSSGSGSESKSTGGSQSALTQPASVSGSPGQSITISCTGASSDVGGYNYVSWYQQHPGKAPKLMIYEVSNRPSGVSNRFSGSKSGNTASLTISGLQAEDEADYYCSSYTITSTLVFGGGTKLTVLEPKSSDKTHTCPPCPAPEAAGGPSVFLFPPKPKDTLMISRTPEVTCVVVSVSHEDPEVKFNWYVDGVEVHNAKTKPREEQYNSTYRVVSVLTVLHQDWLNGKEYKCKVSNKALPAPIEKTISKAKGQPREPQVYVLPPSREEMTKNQVSLLCLVKGFYPSDIAVEWESNGQPENNYLTWPPVLDSDGSFFLYSKLTVDKSRWQQGNVFSCSVMHEALHNHYTQKSLSLSPG
notes: as for B1
B6: PSMB1049 (bispecific antibody, human IgG1, kappa, L234A L235A)
heavy: not shown
light: not shown
chain: QSVLTQPASVSGSPGQSITISCTGTSSDVGGYNYVSWYQQHPGKAPKLMIYEVSNRPSGVSNRFSGSKSGNTASLTISGLQAEDEADYYCSSYTSSYTYVFGTGTKLTVLGGSEGKSSGSGSESKSTGGSEVQLVESGGDLVQPGGSLRLSCAASGFTFNNYNMNWVRQAPGKGLEWVSHISTSSSNKYYADSVKGRFSISRDIAKNSMYLQMNSLRDEDTAVYYCARDGVGADYGDYYYYGMDVWGQGTTVTVSSEPKSSDKTHTCPPCPAPEAAGGPSVFLFPPKPKDTLMISRTPEVTCVVVSVSHEDPEVKFNWYVDGVEVHNAKTKPREEQYNSTYRVVSVLTVLHQDWLNGKEYKCKVSNKALPAPIEKTISKAKGQPREPQVYVLPPSREEMTKNQVSLLCLVKGFYPSDIAVEWESNGQPENNYLTWPPVLDSDGSFFLYSKLTVDKSRWQQGNVFSCSVMHEALHNHYTQKSLSLSPG
notes: as for B1
B7: PSMB1047 (bispecific antibody, human IgG1, kappa, L234A L235A)
heavy: not shown
light: not shown
chain: QSVLTQPPSVSVAPGQTARITCGGNNSGSKSVHWYQQKPGQAPVLVVYDDSDRPSGIPERFSGSNSGNTATLTISRVEAGDEADYYCQVWDSSSDHGVFGGGTKLTVLGGSEGKSSGSGSESKSTGGSQVQLVESGGGEVQPGRSLRLSCAASGFSFSGYGMHWVRQAPGKGLEWVAVMSYDGSNRFYVDSVRGRFSISRDNSKNTLYLQMNSLRPEDTAVYYCARDTVWGSHPDAFDIWGQGTVVTVSSEPKSSDKTHTCPPCPAPEAAGGPSVFLFPPKPKDTLMISRTPEVTCVVVSVSHEDPEVKFNWYVDGVEVHNAKTKPREEQYNSTYRVVSVLTVLHQDWLNGKEYKCKVSNKALPAPIEKTISKAKGQPREPQVYVLPPSREEMTKNQVSLLCLVKGFYPSDIAVEWESNGQPENNYLTWPPVLDSDGSFFLYSKLTVDKSRWQQGNVFSCSVMHEALHNHYTQKSLSLSPG
notes: as for B1
B8: PSMB1052 (bispecific antibody)
heavy: not shown
light: not shown
chain: SYELTQPPSVSVAPGQTARITCGGNNIGSKSVHWYQQKPGQAPVLVVYDDSDRPSGIPERFSGSNSGNTATLTISRVEAGDEADYYCQVWDSSTDHVVFGGGTKLTVLGGSEGKSSGSGSESKSTGGSEVQLVESGGGVVQPGRSLRLSCAASGFTFSSYGMNWVRQAPGKGLEWVAVTSYDGSNKYYADSVKGRFTISRDISKNTLYLQMSSLRAEDTAVYYCARDPYSSSWNGAFDIWGPGTMVTVSSEPKSSDKTHTCPPCPAPEAAGGPSVFLFPPKPKDTLMISRTPEVTCVVVSVSHEDPEVKFNWYVDGVEVHNAKTKPREEQYNSTYRVVSVLTVLHQDWLNGKEYKCKVSNKALPAPIEKTISKAKGQPREPQVYVLPPSREEMTKNQVSLLCLVKGFYPSDIAVEWESNGQPENNYLTWPPVLDSDGSFFLYSKLTVDKSRWQQGNVFSCSVMHEALHNHYTQKSLSLSPG
notes: as for B1

For orientation: EC50 means the concentration at which the effect is half-maximal. A low value points to a more potent agent. One may read the EC90 as the concentration needed for an effect of 90%. Read a high EC90 as a need for much substance. By Kd is commonly meant the constant that tells how readily two partners part at equilibrium. Broadly, the koff is the rate constant with which the complex falls apart. A word on the kon: it is the rate constant with which the complex forms.

T1 sequence (Q04609 whole entry): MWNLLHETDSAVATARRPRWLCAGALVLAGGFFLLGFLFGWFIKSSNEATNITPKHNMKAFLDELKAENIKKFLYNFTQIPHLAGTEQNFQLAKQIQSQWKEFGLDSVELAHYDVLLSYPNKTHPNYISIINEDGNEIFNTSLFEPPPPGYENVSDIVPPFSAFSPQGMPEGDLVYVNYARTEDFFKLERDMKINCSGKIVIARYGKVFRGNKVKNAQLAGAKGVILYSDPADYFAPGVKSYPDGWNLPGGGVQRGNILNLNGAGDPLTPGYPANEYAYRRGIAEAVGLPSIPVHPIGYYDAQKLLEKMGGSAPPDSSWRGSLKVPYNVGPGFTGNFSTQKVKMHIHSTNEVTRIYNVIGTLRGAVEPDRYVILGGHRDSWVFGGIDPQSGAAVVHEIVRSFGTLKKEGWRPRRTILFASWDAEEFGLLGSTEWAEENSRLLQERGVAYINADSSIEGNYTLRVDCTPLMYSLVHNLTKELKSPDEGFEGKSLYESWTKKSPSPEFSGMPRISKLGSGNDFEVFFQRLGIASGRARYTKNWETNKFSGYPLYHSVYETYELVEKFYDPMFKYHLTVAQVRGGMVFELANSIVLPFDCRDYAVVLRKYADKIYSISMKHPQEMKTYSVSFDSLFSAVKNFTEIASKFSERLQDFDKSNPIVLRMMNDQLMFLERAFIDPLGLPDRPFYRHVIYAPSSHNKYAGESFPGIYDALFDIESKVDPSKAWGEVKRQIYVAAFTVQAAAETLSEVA

One experiment concerns the target T1, human PSMA on prostate cancer cell lines (22RV1, C4-2B) (human, UniProt Q04609 1-750).
T1 construct: also called PSMA-expressing cell lines
Briefly: flow cytometry on C4-2B cells, four-parameter fit. On the procedure: Molecule concentrations ranged from 500-0 nM over 12-points at 3-fold dilution. […] Values reported in the Table 69 were generated by fitting the data to a four-parameter function for ligand binding generating values for y-min, y-max, EC50, and Hill. EC90 were calculated using the equation EC90=[…]\hat{ }(1/Hill)*EC50.
B1 showed an EC50 of 10 nM, a concentration for an effect of 90% (EC90) of 76 nM, a Y-max of 1.5e+06 and a Y-min of 67000.

Molecule B2 had an EC50 of 8 nM, a 90% effect concentration (EC90) of 247 nM, a Y-max of 1.9e+06 and a Y-min of 48000.

As for B3, the EC50 stood at 44 nM, the EC90 turned out to be 254 nM, the Y-max came out at 3.3e+06 and the Y-min stood at 87000.

The molecule B4 gave an EC50 of 7 nM, an EC90 of 248 nM, a Y-max of 1.8e+06 and a Y-min of 53000.

B5 returned an EC50 of 30 nM, an EC90 of 156 nM, a Y-max of 1.3e+06 and a Y-min of 66000.

B6 showed an EC50 of 5 nM, an EC90 of 40 nM, a Y-max of 1.5e+06 and a Y-min of 84000.

On to B7, for which the midpoint of the response, the EC50, lay at 22 nM; the EC90 was 71 nM; the Y-max came out at 1.6e+06; the Y-min turned out to be 79000.

Take B8: the concentration giving a half-maximal response (EC50) was determined as 13 nM, it took 100 nM to reach the 90% level (EC90), the Y-max turned out to be 1.5e+06 and the Y-min came to 68000.

The next experiment deals with T2, recombinant human PSMA (human, UniProt Q04609 44-750).
T2 construct: also called hu PSMA; prostate-specific membrane antigen
T2 sequence (Q04609 44-750 limits assumed): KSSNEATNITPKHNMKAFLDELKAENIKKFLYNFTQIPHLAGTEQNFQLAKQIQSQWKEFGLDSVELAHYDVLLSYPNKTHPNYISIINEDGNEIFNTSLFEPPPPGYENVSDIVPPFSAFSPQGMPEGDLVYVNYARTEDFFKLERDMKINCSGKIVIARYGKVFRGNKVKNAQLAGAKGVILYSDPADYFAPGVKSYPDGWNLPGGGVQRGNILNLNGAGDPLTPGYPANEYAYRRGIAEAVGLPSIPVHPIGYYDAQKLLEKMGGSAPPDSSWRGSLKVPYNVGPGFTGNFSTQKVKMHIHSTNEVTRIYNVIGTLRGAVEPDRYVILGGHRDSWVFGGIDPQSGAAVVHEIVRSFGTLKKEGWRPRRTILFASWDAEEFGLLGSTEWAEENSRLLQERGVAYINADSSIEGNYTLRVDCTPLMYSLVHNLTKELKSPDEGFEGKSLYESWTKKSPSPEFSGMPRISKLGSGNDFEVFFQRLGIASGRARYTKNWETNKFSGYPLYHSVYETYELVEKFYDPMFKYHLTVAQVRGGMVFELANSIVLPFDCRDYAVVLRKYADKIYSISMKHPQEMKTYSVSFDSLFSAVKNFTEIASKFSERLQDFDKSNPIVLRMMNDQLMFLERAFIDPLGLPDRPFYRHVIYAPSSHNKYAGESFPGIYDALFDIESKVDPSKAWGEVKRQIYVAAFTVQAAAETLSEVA
Briefly: SPR (Biacore 8K), antibody captured on anti-Fc, PSMA in solution. How it is done: The antibodies were captured on a goat anti-Fc antibody-modified C1 chip and titrated with 3-fold serial dilutions of PSMA antigen spanning concentrations of 1 nM to 100 nM human PSMA. The association and dissociation were monitored for 3 and 30 minutes, respectively, using a flow rate of 50 μL/min. Raw binding data was referenced by subtracting the analyte binding signals from blanks and analyzed using a 1:1 Langmuir binding model by the Biacore Insight evaluation software to obtain the kinetics which were used to calculate the binding affinity. The anti-PSMA were captured using an anti-human Fc antibody and the antigens were injected in solution.
B1: the Kd is 1.01 nM, the koff was found to be 7.75e-05 s⁻¹ and the kon turned out to be 77100 M⁻¹ s⁻¹.

For the molecule B2, the Kd was 1.11 nM, the koff worked out at 0.000168 s⁻¹ and the kon turned out to be 151000 M⁻¹ s⁻¹.

Turning to B3, the Kd was 1.42 nM, the koff amounted to 0.000197 s⁻¹ and the kon is 139000 M⁻¹ s⁻¹.

For the molecule B4, the Kd came out at 0.333 nM, the koff is 6.98e-05 s⁻¹ and the kon was 209000 M⁻¹ s⁻¹.

Consider B5, for which the Kd was determined as 0.936 nM, the koff amounted to 0.000492 s⁻¹ and the kon worked out at 526000 M⁻¹ s⁻¹.

Consider B6, for which the Kd came out at 0.657 nM, the koff worked out at 7.02e-05 s⁻¹ and the kon is 107000 M⁻¹ s⁻¹.

As to B7, the Kd turned out to be 2.52 nM, the koff came out at 0.00175 s⁻¹ and the kon is 694000 M⁻¹ s⁻¹.

Turning to B8, the Kd came to 1.61 nM, the koff is 0.000315 s⁻¹ and the kon was found to be 196000 M⁻¹ s⁻¹.
